Data taken from the DeepSol protein solubility set.

Assay: soluble on expression in E. coli; label from the status in PepcDB or PDB records

Sequence	soluble on expression in E. coli
MRGCNKETGEFLGPSRSQQRRTALEVLVLSEKLAALTPAQLAKLPIPERLLPHITETKRITSHIARKRQLAFLAKQMRREDDTTLEAIREKLNASGIQAQREVATLHRTEQWRKRLLEEGDSALTELLNQYPQADCGKLRQLLRNSKTEQARNKAPQAFRELYQVLHGLIITQ	not soluble
MPRSDGFSPRKNLRRSARDHSRSYAGQCNEDFDDMYAPSSRRRSSGGVDGNGYTRSGRKINHNRYYEEEYHEAISSEEDERRYRTRRSSNSMTYRQQVMQAIDESKRNQKVPPAKRKRIYLSDEEEEDFAEAAHVENTVPERATRRSTRRRSSMHEELGVSEQEESPVRRTRKAAKRLGSEQPEENLAADDPLPMEGGGEIVLPIAEIDGMAEQENEDLIEKIGREEEEEGAEEDEQSGEKDPEEEEDDSSNAESSEESTAPRQYSLRRRQPVVQFNASEARENRRARLEHHRVANQNRHHRNRNGSRRRRSDSDSDSDDMVLPRPDKRQSRPHMHNRGERERGRFMPINMTEKELQSAQHILMDRMRKTDAGQGASDIDPMSVDSSVGFDQVGGLGHHIQSLKEVVLFPMLYPEVFEKFRINPPKGVVFYGPPGTGKTLVARALANECRRGANKVAFFMRKGADCLSKWVGESERQLRLLFDQAYAMRPSIIFFDEIDGLAPVRSSKQDQIHASIVSTLLALMDGLDGRGEVVVIGATNRLDTLDPALRRPGRFDRELRFSLPDLNARRQILDIHTSKWEENKPIPETLDAIAERTSGYCGADLKFLCTEAVLIGLRSRYPHIYMCSERLKLDVATIKITSEHFGHAMRRITPASRRDLTIPSRPLDERTSILLGDTVSNLISLRIPQGYRCVENAMATASSELEQVVRALEPNPTVPAIRLLLCGSEQLADGGQTSYVLPAILAKLDHLPVFSLSVSSLLTDGRPEEAFSNAIQSAMRASATGPCIMLLPSIDEWIKVIPVSVQHMLITCLESMTGFTPILFLSTLDTSFEDAPEYVTEIFRHANCITLNPSRRTIRQKYFEHVIEKINTPPKVFDPRLMRDRRFVEFVEPVDPDEAEDYYEIIETPICMQDIMEKLNNCEYNHADKFVADLILIQTNALEYNPSTTKDGKLIRQMANTLRDAIDDLIECELDESFVERIETVSRMLQDAGVTPTSDKLLTEIPKGFARKKAWSMTNSLAKEIEQWTSEREAENQKMLSKLGVAAPTLELVVVPVEDMKSEEGTSTSTDGVPASAGNKKKLLKKKKGQKKSKTGESEEHDEDSTVEDAGEDTIVENLEIKKNQETPNSEHDIEMKDASKDSTPSVQISIAEKELIVSKPATCELIQCCVEKSEGWSVSELERLSSVLSHTIERFRDEWNRENLPAQLTQIVREWQTADDSNNTIVNGTLNKSNGNLANGH	not soluble
MDELMFFRGMAPDPTSYDRVFKFLIFGGKSVGKKTLLRSFCTEGDNESIWTSLTVDDEKVLIEATVSQKWEEGMSKEHDAIALVFSTTDVYSFEYTLELYNEIQKSTERIPLVFIENKIDIVEDSQMDKGLVEGEMRKKHKRLYRVSALKEFNVMHPFAYLIEKLTRQKKDLNANESVSENSLRL	not soluble
MSLSRFQFVADHLHAFEVKWLCAGVEVARSSFYAWLAGAEGRAARKAADEALAARIRMVHDEDNTYGAPRITAELNDSVPDGERVNHKRVARVMRDAGIAGYRRRRRVKTTTPDPAKQKVPDLLKRDFTAPAPNEKYVGDITYLPLATGSNLYMATVIDCFSGRVAGWAIAEHMRTELVEDALKAADALRGSLAGAVFHSDHGSQYTSTDFASLCEKLGVTQSMGGVGSSADNALAESFNASLKREVLQDRSHWPDSATCRRQVFRWLVRYNLRRRHSRCRYSSPVSYERSHAPATLPEAAEGHHHHHH	not soluble
MSLADEMGYVPDRRAQKLRQASSRLLGVVFELQQPFHGDLVEQIYAAATRRGYDVMLSAVAPSRAEKVAVQALMRERCEAAILLGTRFDTDELGALADRVPALVVARASGLPGVGAVRGDDVAGITLAVDHLTELGHRNIAHIDGADAPGGADRRAGFLAAMDRHGLSASATVVTGGTTETEGAEGMHTLLEMPTPPTAVVAFNDRCATGVLDLLVRSGRDVPADISVVGYDDSRLARIPHVQMTTISQDATHMAEAAVDGALAQISGDKAVDLVLAPHLVRRATTGPVAHREGHHHHHH	soluble
MIRHLEFKSRTRTDMIDITSAVQEQVRSAAVRNGVCHLFVLHTTAGITINEGADPAVQRDMVNFLDRLVPIDPYFTHAEGNSDAHIKSTLTGTSLTVFIVEGKLLLGSWQSIYLCEFDGPRHRRVAVKVVPDPLEHHHHHH	not soluble
MSTDAFYSTAFPTIPGTPNLLGYTAYSPQSIFNDSRPASSVNNTPSTSFNSSIHSRNRSIAMLHSISHILSNDDSLGSTTESSTPSTPEIHPSNAPAKKTIPLVLISDTDEECDKKSRKRRIRSKSSKKSRGIRKSRKHEASDYRKKIMLGTFEGRKIVLKLMK	not soluble
